Results reported in US6830925.

Tests used:
Syntide 2 = target: T1, Syntide 2
T1 chain: PLARTLSVAGLPGKK

CREBtide = target: T2, CREBtide
T2 chain: KRREILSRRPSYR

[1] = target: T3, Calmodulin Dependent Protein Kinase Substrate
T3 chain: PLSRTLSVSS

[2] = target: calmodulin (CalBiochem), P0DP23

B1: Xpress-CaMK-X1 fusion protein (CaMK-X1 coding sequence fused to the Xpress epitope, stably expressed in HEK293 cells) (protein)
chain: MGRKEEDDCSSWKKQTTNIRKTFIFMEVLGSGAFSEVFLVKQRLTGKLFALKCIKKSPAFRDSSLENEIAVLKKIKHENIVTLEDIYESTTHYYLVMQLVSGGELFDRILERGVYTEKDASLVIQQVLSAVKYLHENGIVHRDLKPENLLYLTPEENSKIMITDFGLSKMEQNGIMSTACGTPGYVAPEVLAQKPYSKAVDCWSIGVITYILLCGYPPFYEETESKLFEKIKEGYYEFESPFWDDISESAKDFICHLLEKDPNERYTCEKALSHPWIDGNTALHRDIYPSVSLQIQKNFAKSKWRQAFNAAAVVHHMRKLHMNLHSPGVRPEVENRPPETQASETSRPSSPEITITEAPVLDHSVALPALTQLPCQHGRRPTAPGGRSLNCLVNGSLHISSSLVPMHQGSLAAGPCGCCSSCLNIGSKGKSSYCSEPTLLKKANKKQNFKSEVMVPVKASGSSHCRAGQTGVCLIM
B1 was tested, and the “in vitro kinase assay (32P incorporation) with immunoprecipitated CaMK-X1” value (Syntide 2) was “CaMK-X1 phosphorylated CREBtide and Syntide 2 in vitro”, the “in vitro kinase assay (32P incorporation) with immunoprecipitated CaMK-X1” value (CREBtide) was “CaMK-X1 phosphorylated CREBtide and Syntide 2 in vitro” and the “in vitro kinase assay (32P incorporation) with immunoprecipitated CaMK-X1” value [1] was “In contrast, CaMK-X1 could not phosphorylate control peptide”. The “in vitro kinase assay (32P incorporation into peptides) with and without calmodulin” value [2] was “The degree of phosphorylation is augmented in the presence of calmodulin”.

B2: Histidine tagged CaMK-X1 expressed in Sf9 cells and purified with a Ni2+ affinity column (protein)
chain: MGRKEEDDCSSWKKQTTNIRKTFIFMEVLGSGAFSEVFLVKQRLTGKLFALKCIKKSPAFRDSSLENEIAVLKKIKHENIVTLEDIYESTTHYYLVMQLVSGGELFDRILERGVYTEKDASLVIQQVLSAVKYLHENGIVHRDLKPENLLYLTPEENSKIMITDFGLSKMEQNGIMSTACGTPGYVAPEVLAQKPYSKAVDCWSIGVITYILLCGYPPFYEETESKLFEKIKEGYYEFESPFWDDISESAKDFICHLLEKDPNERYTCEKALSHPWIDGNTALHRDIYPSVSLQIQKNFAKSKWRQAFNAAAVVHHMRKLHMNLHSPGVRPEVENRPPETQASETSRPSSPEITITEAPVLDHSVALPALTQLPCQHGRRPTAPGGRSLNCLVNGSLHISSSLVPMHQGSLAAGPCGCCSSCLNIGSKGKSSYCSEPTLLKKANKKQNFKSEVMVPVKASGSSHCRAGQTGVCLIM
For B2, the “in vitro kinase assay (32P incorporation) with Ni2+ purified CaMK-X1” value (Syntide 2) was “CREBtide and Syntide 2 are phosphorylated by the purified CaMK-X1”, the “in vitro kinase assay (32P incorporation) with Ni2+ purified CaMK-X1” value (CREBtide) was “CREBtide and Syntide 2 are phosphorylated by the purified CaMK-X1” and the “in vitro kinase assay (32P incorporation) with Ni2+ purified CaMK-X1” value [1] was “Syntide 2 and CREBtide had higher incorporation of ^32P than the control peptide”. The “in vitro kinase assay (rate of peptide phosphorylation) with and without Ca2+ and calmodulin” value [2] was “The rate of phosphorylation is increased in the presence of Ca^2+ and calmodulin”.
